Experimental data as given in patent US8318473B2, “Biofuel production” (Bio Architecture Lab, Inc., priority 2007, dated 2012).

Experiments:
[1] = background statement, no test described; cited from earlier work
[2] = Kinetic testing of oxidation and reduction reactions on various substrates using 2ADH-16; format: biochemical; conditions: 0.04 mg/mL enzyme, 0.25 mg/mL cofactor, 20 mM Tris HCl pH 6.5(red) or 9.0(ox), 25 C; FIG. 35, 36
Experimental: Similar to above, kinetic testing for both oxidation and reduction reactions was performed on various substrates using 2ADH-16. The conditions for these studies were as follows: 0.04 mg/mL enzyme, 0.25 mg/mL cofactor, 20 mM Tris HCl Buffer pH 6.5(red) or 9.0(ox), T=25 C, 100 uL total volume was used.

Molecule	rate of benzoin formation from two benzaldehyde molecules [1]	oxidation and reduction of various substrates [2]
BAL: benzaldehyde lyase (BAL) from Pseudomoas fluorescens, ThDP-dependent C—C ligase, SEQ ID NOS: 143-144 (protein, listed as Pseudomonas fluorescens) MAMITGGELVVRTLIKAGVEHLFGLHGAHIDTIFQACLDHDVPIIDTRHEAAAGHAAEGYARAGAKLGVAGHGGRGIYQCGHAHCQRLAGSQGRCIPHPGSGALRDDETNTLQAGIDQVAMAAPITKWAHRVMATEHIPRLVMQAIRAALSAPRGPVLLDLPWDILMNQIDEDSVIIPDLVLSAHGARPDPADLDQALALLRKAERPVIVLGSEASRTARKTALSAFVAATGVPVFADYEGLSMLSGLPDAMRGGLVQNLYSFAKADAAPDLVLMLGARFGLNTGHGSGQLIPHSAQVIQVDPDACELGRLQGIALGIVADVGGTIEALAQATAQDAAWPDRGDWCAKVTDLAQERYASIAAKSSSEHALHPFHASQVIAKHVDAGVTVVADGALTYLWLSEVMSRVKPGGFLCHGYLGSMGVGFGTALGAQVADLEAGRRTILVTGDGSVGYSIGEFDTLVRKQLPLIVIIMNNQSWGATLHFQQLAVGPNRVTGTRLENGSYHGVAAAFGADGYHVDSVESFSAALAQALAHNRPACINVAVALDPIPPEELILIGMDPFA	320 μmol (benzoin) mg (protein)^−1 min^−1	–
2ADH-16: secondary alcohol dehydrogenase isolated from Klebsiella pneumoniae subsp. pneumoniae MGH 78578, SEQ ID NO: 138 (protein, Klebsiella pneumoniae subsp. pneumoniae MGH78578) MTAFHNKSVLVLGGSRGIGAAIVRRFVADGASVVFSYSGSPEAAERLAAETGSTAVQADSADRDAVISLVRDSGPLDVLVVNAGIALFGDALEQDSDAIDRLFHINIHAPYHASVEAARRMPEGGRIIVIGSVNGDRMPLPGMAAYALSKSALQGLARGLARDFGPRGITVNVVQPGPIDTDANPENGPMKELMHSFMAIKRHGRPEEVAGMVAWLAGPEASFVTGAMHTIDGAFGA	–	capable of catalyzing both the oxidation and reduction of a wide variety of substrates
